Several values for one entry are separate records, joined by “and”; a condition that tells them apart may be missing. Equal values may be shown once.
Key:
[1] = biological target: Neuroserpin (SERPINI1), wild type, uncleaved (human) (UniProt Q99574); assay: native MS; nano-ESI-MS of the SEC peak at 12.5 ml of Nat incubated overnight at 20 °C with EMB; 100 mM ammonium acetate pH 8, 10-20 μM protein, declustering potential 300 V
[2] = biological target: Neuroserpin (SERPINI1), wild type, uncleaved (human) (UniProt Q99574); assay: SEC-MALS; Nat incubated with EMB; peaks eluted at 13.7 and 12.5 ml; SEC-HPLC, 200 μL at 4 mg/mL
[3] = biological target: Neuroserpin (SERPINI1), wild type, uncleaved (human) (UniProt Q99574); assay: SEC; Nat (4 mg/ml) with 1.5 mM (saturated) EMB overnight at 4, 20, 37, 45, 55 °C; Superdex200 10/300 GL, 10 mM Tris HCl, 50 mM KCl, pH 8.0; fractions also by SDS-PAGE
[4] = biological target: T1, 2ctPA (active form of recombinant tPA) (Homo sapiens, UniProt P00750); assay: tPA hydrolytic activity assay; type: biochemical; settings: direct inhibition stated, data not shown; conditions not given
T1 construct: gene PLAT
T1 sequence (P00750 36-562): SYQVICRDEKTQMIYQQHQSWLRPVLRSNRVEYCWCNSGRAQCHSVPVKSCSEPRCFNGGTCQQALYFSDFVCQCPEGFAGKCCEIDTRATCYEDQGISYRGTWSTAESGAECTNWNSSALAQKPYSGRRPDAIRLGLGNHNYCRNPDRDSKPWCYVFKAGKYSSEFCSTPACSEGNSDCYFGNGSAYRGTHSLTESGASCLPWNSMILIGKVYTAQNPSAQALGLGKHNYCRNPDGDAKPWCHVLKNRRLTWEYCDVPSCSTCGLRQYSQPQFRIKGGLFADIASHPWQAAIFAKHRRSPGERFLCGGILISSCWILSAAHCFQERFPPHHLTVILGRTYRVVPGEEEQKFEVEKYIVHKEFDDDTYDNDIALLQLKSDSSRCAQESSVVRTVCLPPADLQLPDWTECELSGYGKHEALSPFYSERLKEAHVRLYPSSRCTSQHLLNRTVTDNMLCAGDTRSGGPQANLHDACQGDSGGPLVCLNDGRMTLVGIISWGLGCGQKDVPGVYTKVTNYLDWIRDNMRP

stoichiometry N [1] | stoichiometry N [2] | stoichiometry N [3] | Molecule | tPA hydrolytic activity assay [4]
3 and 4 and 2 | 2 | 2 to 8 | Neuroserpin (SERPINI1), wild type, uncleaved (from UniProt Q99574 17-410) (natural protein) | –
– | – | – | CCCCCCCCCCCC1=C(O)C(=O)C=C(O)C1=O [EMB, embelin] | Due to direct inhibitory effect of EMB on tPA
